Experimental data published in patent publication US20230357415A1.

Molecular target: IL-5Rα expressed on cells (TF-1/IL-5Rα cells; human eosinophils) (human) (UniProt Q01344)
Experiment: cell-based or functional assay

Sequence of IL-5Rα expressed on cells (TF-1/IL-5Rα cells; human eosinophils) (human) (Q01344 21-420): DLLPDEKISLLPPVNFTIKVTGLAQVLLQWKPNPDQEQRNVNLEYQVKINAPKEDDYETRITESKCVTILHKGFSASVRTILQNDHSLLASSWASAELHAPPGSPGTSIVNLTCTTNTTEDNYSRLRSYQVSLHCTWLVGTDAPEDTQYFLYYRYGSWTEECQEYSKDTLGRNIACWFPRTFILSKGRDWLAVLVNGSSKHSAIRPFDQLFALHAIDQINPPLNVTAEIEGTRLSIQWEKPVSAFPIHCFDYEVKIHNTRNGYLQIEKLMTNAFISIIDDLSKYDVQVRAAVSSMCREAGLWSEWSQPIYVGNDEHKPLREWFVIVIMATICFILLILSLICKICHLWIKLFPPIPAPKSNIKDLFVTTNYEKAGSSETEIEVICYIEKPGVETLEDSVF

absolute IC50 (Abs IC50), inhibition of IL-5-dependent proliferation of TF-1/IL-5Rα cells: 1.99 nM
Substance: benralizumab analogue (antibody)
